Test results from article PMC8277567, “Thermostable D-amino acid decarboxylases derived from Thermotoga maritima diaminopimelate decarboxylase” (Protein Engineering, Design and Selection, 2021).

How the values were obtained:
[1] = tested on: N[C@H](CCC[C@H](N)C(=O)O)C(=O)O; test: purified protein; settings: 100 mM TEA-HCl pH 7.8, PLP, 10 mM MgCl2, 30 C, DAP 0-10 mM
[2] = tested on: NC(CCCCC(=O)O)C(=O)O; test: purified protein; settings: similar conditions to wild-type assay; 2-APA 0-10 mM; racemic substrate

Substance | Km [1] | kcat [1] | Km [2] | kcat [2]
TmDAPDC (diaminopimelate decarboxylase from T. maritima) (Thermotoga maritima MSB8) | 0.27 (0.06) mM | 0.075 s⁻¹ |  | 
TmDAPDC (diaminopimelate decarboxylase from T. maritima) (Thermotoga maritima MSB8; E315T) |  |  | 0.32 (0.03) mM | 0.2 s⁻¹
